In publication PMC7418988, “IgaA negatively regulates the Rcs Phosphorelay via contact with the RcsD Phosphotransfer Protein” (PLoS Genetics, 2020):

B1: IgaA fused to the T18 or the T25 fragment of adenylate cyclase (natural protein, E. coli, UniProt P45800 1-711, looked up)
chain: MSTIVIFLAALLACSLLAGWLIKVRSRRRQLPWTNAFADAQTRKLTPEERSAVENYLESLTQVLQVPGPTGASAAPISLALNAESNNVMMLTHAITRYGISTDDPNKWRYYLDSVEVHLPPFWEQYINDENTVELIHTDSLPLVISLNGHTLQEYMQETRSYALQPVPSTQASIRGEESEQIELLNIRKETHEEYALSRPRGLREALLIVASFLMFFFCLITPDVFVPWLAGGALLLLGAGLWGLFAPPAKSSLREIHCLRGTPRRWGLFGENDQEQINNISLGIIDLVYPAHWQPYIAQDLGQQTDIDIYLDRHVVRQGRYLSLHDEVKNFPLQHWLRSTIIAAGSLLVLFMLLFWIPLDMPLKFTLSWMKGAQTIEATSVKQLADAGVRVGDTLRISGTGMCNIRTSGTWSAKTNSPFLPFDCSQIIWNDARSLPLPESELVNKATALTEAVNRQLHPKPEDESRVSASLRSAIQKSGMVLLDDFGDIVLKTADLCSAKDDCVRLKNALVNLGNSKDWDALVKRANAGKLDGVNVLLRPVSAESLDNLVATSTAPFITHETARAAQSLNSPAPGGFLIVSDEGSDFVDQPWPSASLYDYPPQEQWNAFQKLAQMLMHTPFNAEGIVTKIFTDANGTQHIGLHPIPDRSGLWRYLSTTLLLLTMLGSAIYNGVQAWRRYQRHRTRMMEIQAYYESCLNPQLITPSESLIE
notes: IgaA (E. coli homolog, gene yrfF), five-pass inner membrane protein; Two fusions of the same protein, each chain with ONE of the two tags: T18 (pEAW1) or T25 (pEAW2); also called YrfF; IgaA-T18; source: bacterial two-hybrid (BACTH) fusion, expressed from a plasmid in E. coli BTH101; not shown: T18 fragment of Bordetella adenylate cyclase (Cya), C-terminal, kept; T25 fragment of Bordetella …
B2: RcsD fused to the T25 or the T18 fragment of adenylate cyclase (natural protein, E. coli, UniProt P39838 1-890, looked up)
chain: MRQKETTATTRFSLLPGSITRFFLLLIIVLLVTMGVMVQSAVNAWLKDKSYQIVDITHAIQKRVDNWRYVTWQIYDNIAATTSPSSGEGLQETRLKQDVYYLEKPRRKTEALIFGSHDNSTLEMTQRMSTYLDTLWGAENVPWSMYYLNGQDNSLVLISTLPLKDLTSGFKESTVSDIVDSRRAEMLQQANALDERESFSNMRRLAWQNGHYFTLRTTFNQPGHLATVVAFDLPINDLIPPGMPLDSFRLEPDATATGNNDNEKEGTDSVSIHFNSTKIEISSALNSTDMRLVWQVPYGTLLLDTLQNILLPLLLNIGLLALALFGYTTFRHFSSRSTENVPSTAVNNELRILRAINEEIVSLLPLGLLVHDQESNRTVISNKIADHLLPHLNLQNITTMAEQHQGIIQATINNELYEIRMFRSQVAPRTQIFIIRDQDREVLVNKKLKQAQRLYEKNQQGRMIFMKNIGDALKEPAQSLAESAAKLNAPESKQLANQADVLVRLVDEIQLANMLADDSWKSETVLFSVQDLIDEVVPSVLPAIKRKGLQLLINNHLKAHDMRRGDRDALRRILLLLMQYAVTSTQLGKITLEVDQDESSEDRLTFRILDTGEGVSIHEMDNLHFPFINQTQNDRYGKADPLAFWLSDQLARKLGGHLNIKTRDGLGTRYSVHIKMLAADPEVEEEEERLLDDVCVMVDVTSAEIRNIVTRQLENWGATCITPDERLISQDYDIFLTDNPSNLTASGLLLSDDESGVREIGPGQLCVNFNMSNAMQEAVLQLIEVQLAQEEVTESPLGGDENAQLHASGYYALFVDTVPDDVKRLYTEAATSDFAALAQTAHRLKGVFAMLNLVPGKQLCETLEHLIREKDVPGIEKYISDIDSYVKSLL
notes: RcsD, phosphotransfer protein of the Rcs phosphorelay, inner membrane protein, 890 aa; Two fusions of the same protein, each chain with ONE of the two tags: T25 (pEAW8) or T18 (pEAW7); also called RcsD-T25; RcsD-T18; source: bacterial two-hybrid (BACTH) fusion, expressed from a plasmid in E. coli BTH101; not shown: T25 fragment of Bordetella adenylate cyclase (Cya), C-terminal, kept; T18 fragment …

Columns and labels:
[1] = molecular target: B2; test: two-hybrid; bacterial adenylate cyclase two-hybrid (BACTH): T18 and T25 fragments fused C-terminally to the two proteins, two plasmids in cyaA deficient E. coli BTH101; beta-galactosidase activity (Miller units) against fusion plus empty cognate vector as background; threshold for reliable interaction 4x over background; IgaA/RcsD also tested in rcsB, rcsC, rcsF and rcsD mutant hosts; in the rows the T25 fusion is …; settings: partners not purified
[2] = molecular target: B1; test: as above; settings: partners not purified

beta-galactosidase activity [1] | beta-galactosidase activity, fold over either fusion paired with an empty cognate vector [1] | beta-galactosidase activity, fold over either fusion paired with an empty cognate vector [2] | beta-galactosidase level, fold over the single construct (background) controls [2] | Binder
≥ 1000 Miller units | ~20 fold | – | – | B1
– | – | ~20 fold | > 30 fold | B2
